Read-outs that look alike come from different tables or passages of the source. Non-standard residues stand in square brackets, D forms with d. No end group written: not given here. pS = N[C@@H](COP(=O)(O)O)C(=O)O
T1: β-TRCP1 (monomeric form, from residue 175 to C-terminus) (human, UniProt Q9Y297 175-605)
T1 sequence: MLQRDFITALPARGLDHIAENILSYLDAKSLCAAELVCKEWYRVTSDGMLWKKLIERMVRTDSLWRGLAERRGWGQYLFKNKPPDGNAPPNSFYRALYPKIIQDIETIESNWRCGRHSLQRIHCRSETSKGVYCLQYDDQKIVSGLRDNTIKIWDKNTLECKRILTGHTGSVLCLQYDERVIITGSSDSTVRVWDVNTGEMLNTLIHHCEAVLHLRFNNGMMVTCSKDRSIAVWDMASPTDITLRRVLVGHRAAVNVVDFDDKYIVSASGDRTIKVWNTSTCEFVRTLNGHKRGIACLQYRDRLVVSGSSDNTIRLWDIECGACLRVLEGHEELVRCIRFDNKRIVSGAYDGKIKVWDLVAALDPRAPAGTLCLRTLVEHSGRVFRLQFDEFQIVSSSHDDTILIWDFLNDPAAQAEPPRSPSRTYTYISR


What was measured:
[1] = biological target: T1, β-TRCP1 (monomeric form, from residue …); experiment: cryo-EM structure
[2] = biological target: T1, β-TRCP1 (monomeric form, from residue …); experiment: cryo-EM structure; remark: listed apart in the source

binding result [1]	binding result [2]	Binder
binds		KKERLLDDRHD[pS]GLD[pS]MKDEE [IκBα-derived phosphopeptide KKERLLDDRHD(pS)GLD(pS)MKDEE]
	binds	CKKERLLDDRHDSGLDSMKDEE [IκBα-derived substrate peptide with N-terminal Cys (cryo EM peptide)]

From publication PMC7050210 (Nature, 2020)
